The record followed here is a protein production outcome set (Wang et al. 2014).

A short description of the data set: label from the status in PepcDB records.
Consider “MQNTTHDNVILELTVRNHPGVMTHVCGLFARRAFNVEGILCLPIQDSDKSHIWLLVNDDQRLEQMISQIDKLEDVVKVQRNQSDPTMFNKIAVFFQ”, for which the protein production result was “failed”. “MQPELTKTPANFPLSPLGAVVILGDIPNPELLAIPLAPTPSTMFGPRGACLVAETGALWVSDTGHHRLLGWRKLPTTDSQPADWVIGQPDFYHEGQNAKGTPGRTTVSVPTGICVCGGGLAIADAWNHRVLIWHKIPEDSNVPADLVLGQRNFSENEPNRGKQSPDANTMHWPYGVAYHQGKLFVADTGNRRLLIWQQLPTENGQPADIVLGQPDMISRNENGGGSPTAGSMRWCHDIAFWDDNLVVTDAGNNRVMIWQGIPTENNAPCAVVLGQKSFDLVEMNQGVYFPSAGSLSMPYGVGATEDWLMVADTANSRLLGWRKRESILLLQGAIADGIIGQNSFQSKSENRHFGLPTRDSLNWCYGVKVCGSTAVISDSGNNRVLLWRFLLEHHHHHH”: the protein production entry is “failed”.

On to “MQPFYIKKGRGSVIYSSVRKDLPPFHLFQMGKYSVVEDFSCLNNAVGDIVIGDYCRIGLGNTVIGPIRIDNGVNISQNVVLIGLDHNYQDITQGIIEQGITTSPIHIGEHTIIGANVIVLPGITIGKHCFIGAGCVVTQNIPDYCVTVGNPARIIKRYNPQSQTWEKILEHHHHHH”, for which the protein production result is given as “failed”. Consider “MQPPSHAPRQLAAADLAVGQVVAQREIRLDAQAFAQFAALTGDAHPIHYDAGYAQRQGLRAPIAHGLLLVAISALGATPLSAQLHDAMVAMVGVEAVFMRPVYVDETVQCVYRVAQIEHVAKGRSKTTIAVSIHTTDAPPDAARQAHCVVHLTFLLKTHLQG”, for which the protein production entry is on record as “failed”. To “MQPTSITVASYNLRNANGGDSINGNGWGQRYPVIAQIVQYHDFDIFGTQECFIHQLKDMKEALPGYDYIGVGRDDGKEKGEHSAIFYRTDKFDVIEKGDFWLSETPDVPSKGWDAVLPRICSWGHFKCKDTGFEFLFFNLHMDHIGKKARVESAFLVQDKMKELGKGKELPAILTGDFNVDQTHQSYDAFVSKGVLCDSYEKAGFRYAINGTFNDFDPNSFTESRIDHIFVSPSFQVKRYGVLTDTYRSIVGKGEKKQANDCPEEIDIKTYQARTPSDHFPVKVELEFDQRQQKLEHHHHHH” belongs “not failed”. With “MQPWTQIYTPLGSLWLSALAAAIPILFFFVALAVLRMKGHVAAAVTLALALAVAIFAYGMPAQQAFAAAGFGFAYGLWPIAWIIVTAVFLYKIVVKTGQFDVIRASVLSITDDQRLQMLLIGFAFGAFLEGAAGFGAPVAITAALLVGLGFNPLYAAGLCLIANTAPVAFGAMGIPIIVAGQVTGIDPMHIGAMAGRQLPLLSLAVPFWLVFMMDGAKGVRETWPAALVVGGSFAVTQYFTSNHIGPELPDITSALVSLISLAAFLRVWQPRSASQAAGGTVAAGGTVAMAGFGGGMGAPASRKASPYTFGQTVRAWAPFGILTAIVTVWSLAPFKALFAGNGALAGTVLKFKVPMLDQLVIKSAPIVASPKPYEAVLKLDLLSAVGTAILLTAIISAVLLRMKPSDAITTFKETLLELRRPIASIGLVLAFAFVANYSGMSSTLALLLAGTGAAFPFFSPLLGWLGVFLTGSDTSSNALFCSLQHTTAHQIGVSDTLLVAANTTGGVTGKMISPQSIAVACAATGLVGKESELFRFTVKHSLLFAAIVGVITMIQAYWLTGMIPG”, the protein production result was “failed”. The result for “MQQSEHFSFGEQTEIEDIGGGLKRQMLGFNHELMAVKIWFDKGAEGYVHAHRHSQVSYVVEGEFHVNVDGVIKVLTAGDSFFVPPHVDHGAVCPTGGILIDTFSPAREDFVEGLS” reads “not failed”.

In the case of “MQRFVLRDWHYRGLSMSLMAQTDKPNIVIIMTDQQRADLCGREGFPLAVTPYVDQLAQENVWFNKAYTVAPASSPARCSMFTGRFPSATHVRTNHNIPDIFFEQDLVGVLKENGYKTALVGKNHAYLKPADLDFWSEYGHWGKNKKTTPEEKETARFLNQKARGQWLEPSPIPVEEQHPAKIVNETLSWIESQKENPFFVWVSFPEPHNPYQVCEPYYSMFSPDKLPVLKTSRKDLEKKGEKYRILAELEDASCPNLEQDLPRIRANYIGMIRLIDDQIKRLIESLKASGQFENTIFVVLSDHGDYWGEYGLIRKGAGLSESLARIPMVWAGYHVKNQSAPMDSHVSIADIFPTLCSAIGAKIPAGVQGRSLWPMLTGKEYPKEEFSSIVVQQGFGGAHVGLDSSLTFEQEGALTPGKIAYFDELNTWTQSGTSRMVRKDDWKLVMDNYGNGELYNLKKDPSEVDNLFGKKKYTAVQTELLTKLVAWELRLQDPLPLPRKRYHFKQDPYNYLQPEQLEHHHHHH”, the protein production entry is listed as “failed”.
